The values that follow come from patent US20240082302A1 (University of Pennsylvania, published 2024).

The target of test [1] is T1, human TIM-3 expressed on cells (NB4-TIM3 cells; human AML leukemic stem cells) (human, UniProt Q8TDQ0 22-301).
T1 construct: whole, on cells; also called NB4-expressing human TIM-3
T1 sequence (looked up): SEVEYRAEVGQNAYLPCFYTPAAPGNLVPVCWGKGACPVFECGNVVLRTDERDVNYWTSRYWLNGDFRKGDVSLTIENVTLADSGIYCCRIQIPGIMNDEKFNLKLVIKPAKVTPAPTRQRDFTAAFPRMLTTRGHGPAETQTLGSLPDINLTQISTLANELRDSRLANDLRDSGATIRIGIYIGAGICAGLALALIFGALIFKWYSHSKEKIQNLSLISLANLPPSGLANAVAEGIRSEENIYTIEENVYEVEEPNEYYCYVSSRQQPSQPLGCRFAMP
The test can be described thus: flow cytometry, VHH phage clones on NB4 cells expressing human TIM-3.

Test [2] deals with T1, human TIM-3 expressed on cells …. Briefly: phage display panning/screening on TIM-3 expressing NB4 cells. An excerpt:
To generate VHHs targeting human TIM-3, human recombinant extracellular TIM-3 purified from HEK293 cells was used to immunize llamas, and the resulting VHH phage display libraries were constructed. The phage VHH clones targeting TIM-3 were screened by panning through TIM-3 expressing NB4 cells. The positive clones specifically binding to TIM-3 expressing NB4 cells were isolated. DNA encoding each of the VHHs, including VHH30, 32, and 33, were sequenced. The sequences were consistent with the predicted sequences for VHHs. Each of the VHHs, with both nucleotide and amino acid sequences, are listed below.

B1: Anti-TIM3 VHH33 (VHH)
VHH: QVQLQESGGGLVQPGGSLRLSCAVSGLTPDAYVMGWFRQAPGKEREGVSCISPSGGTTSYPDSVKGRFTISRDNAKNTVYLQMNSLKPEDTGVYYCAAVAGRWCDYGMNYYGKGTQVTVSS
notes: Llama VHH tested as a phage clone (pCOMB3X phage display) by flow cytometry on cells
Consider B1, for which, in test [1], the binding result was “binds”.

B2: Anti-TIM3 VHH32 (VHH)
VHH: QVQLQESGGGLVQAGGSLNLSCAASGSSFRLYTVGWHRQAPGKQRELVAWISGAGSTNYHSSVKGRFTISRDNAKNTALLQMNNLAPEDTAVYYCNLLNYWGQGTQVTVSS
notes: as for B1
As for B2, the binding result in test [1] is given as “binds”.

B3: Anti-TIM3 VHH38 (VHH)
VHH: QVQLQESGGGLVQAGDSLRLSCAVGRTFSASTLGWFRQSPGKEREFVAAISWWRGEAYYGDSVKGRFTISRDNTKTTINLQMNSLKPEDTAVYYCARAQFDGATRADDYDNWGQGTQVTVSS
notes: Llama VHH isolated as a phage display clone (pCOMB3X)
Regarding B3, the binding result in test [2] is reported as “binds”.

B4: Anti-TIM3 VHH30 (VHH)
VHH: QVQLQESGGGLVQAGGSLRLSCAASGFTFGSYVMGWFRQAPGKEREFVASISTSGGITSYADSVKGRFTVSRDNAKNTVYLQMNSLKPEDTAVYYCARDLTYYRTGGRLPDNANGYAYWGQGTQVTVSS
notes: as for B1
For B4, the binding result in test [1] is “binds”.

B5: Anti-TIM3 VHH12 (VHH)
VHH: QVQLQESGGGLVQTGDSLRLSCVVSGGTFRNYVMGWFRQAPGKEREFVSAMNWSGGITVYADSVKGRFTISRDNAKNAVYLQMGSLKPGDTAVYYCAAAAIDGGTVRSINSYAYWGQGTQVTVSS
notes: as for B3
Regarding B5, the binding result in test [2] is reported as “binds”.

B6: Anti-TIM3 VHH13 (VHH)
VHH: QVQLQESGGGLVQAGGSLSLSCAASGRTFKNYLMAWFRQTPGKEREFVAAITQLGTRSLNEDFVKGRFTISRDNAKNTVYLQMNDLKTDDTGVYSCAASLQSGGSLRYAKYDYWGQGTQVTVSS
notes: as for B3
For the molecule B6, the binding result in test [2] is “binds”.
